From patent US8323941B2, “Histone demethylation mediated by the nuclear amine oxidase homolog LSD1” (President and Fellows of Harvard College, priority 2004, dated 2012)

Experiments:
LSD1 [1] = target: T1, LSD1 (Homo sapiens, UniProt O60341); assay: LSD1 demethylation assay on nucleosomal substrates (mononucleosomes), Western blotting; format: biochemical; design: Full length (1-851aa) and C-terminal deleted (1-427 aa) human LSD1 cDNAs; 6xHis (N); made in house; host or cells: bacteria
Protocol: Preparation of mononucleosome. Mononucleosome was made according to a standard protocol (Tagami et al., 2004; Utley et al., 1996). Briefly, nuclear pellet from both TSA-treated or non-treated HeLa cells was homogenized for 60 times with type A pestle to obtain oligo-nucleosomes. The oligo-nucleosomes were then digested with micrococcal nuclease (40 units/mL) for 10 mins at 30° C. The nuclease is inactivated by 5 mM EDTA. Digested materials were spun at 14000 rpm for 3 mins. Resulting supernatant was spun again for additional 3 mins at the same speed. Supernatant from the second spin was subject to 10-25% glycerol gradient sedimentation. The monocleosome-containing fractions were identified by examining aliquots of fractions (treated with proteinase K) on DNA agarose gel. An aliquot of TSA-treated or non TSA-treated mononucleosome, a kind gift from Dr. Yoshihiro Nakatani's Lab in Dana Faber Cancer Institute, Harvard Medical School (Tagami et al., 2004), was used here as a control for the quality of mononucleosome made in our lab.
(§1) Demethylation assay. LSD1 demethylation activity on free histone or nucleosomal histone was carried out as previously reported (Shi et al., 2004). Briefly, bulk histones or mononucleosomes were incubated with purified His-LSD1 with or without purified His-CoREST, His-CoREST mutants, His-BHC80 and/or GST-HDAC1 in the histone demethylase activity (HDM) assay buffer (50 mM Tris pH8.5, 50 mM KCl, 5 mM MgCl, 0.5% BSA and 5% glycerol) from 10 mins up to 1 hour at 37° C. The demethylase activity of LSD1 under various conditions was evaluated by Western blotting using K4-H3 methylation-specific antibodies.

LSD1 [2] = target: T1, LSD1; assay: LSD1 demethylation assay on free (bulk) histones, Western blotting; format: biochemical; design: Full length (1-851aa) and C-terminal deleted (1-427 aa) human LSD1 cDNAs; 6xHis (N); made in house; host or cells: bacteria (IPTG induction); settings: H3-K4 demethylation, recombinant LSD1
Protocol: as §1

effect of added protein on ability of recombinant LSD1 to demethylate nucleosomal substrates (LSD1 [1]; bacterially purified protein added to recombinant LSD1): no effect
Substance: BHC80: PHD domain-containing component of the BRAF35/HDAC2 complex, recombinant
demethylase activity of LSD1/CoREST (LSD1 [1]; increasing amounts of BHC80, nucleosomal substrates): proportional decrease | effect on LSD1 demethylase activity on free histones (LSD1 [2]): significantly dampened
